Series [1] concerns the target T1, homocitrate synthase ScLys20 S385F variant (Saccharomyces cerevisiae, UniProt P48570, S385F).
T1 construct: gene LYS20; N-terminal His-tagged recombinant ScLys20
T1 sequence (P48570 1-428 S385F): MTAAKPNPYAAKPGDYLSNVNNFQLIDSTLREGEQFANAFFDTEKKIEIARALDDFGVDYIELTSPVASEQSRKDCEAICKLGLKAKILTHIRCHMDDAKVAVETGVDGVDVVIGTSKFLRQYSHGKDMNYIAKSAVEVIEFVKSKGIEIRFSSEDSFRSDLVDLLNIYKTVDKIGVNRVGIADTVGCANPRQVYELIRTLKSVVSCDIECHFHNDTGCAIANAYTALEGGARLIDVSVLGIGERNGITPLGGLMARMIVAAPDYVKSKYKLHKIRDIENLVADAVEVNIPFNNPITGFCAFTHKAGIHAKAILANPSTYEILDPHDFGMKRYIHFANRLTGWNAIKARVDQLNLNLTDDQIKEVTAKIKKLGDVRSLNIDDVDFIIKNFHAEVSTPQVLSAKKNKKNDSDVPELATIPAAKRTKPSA
The series is described as follows: DCPIP-coupled HCS activity assay with purified enzyme ([…] 2-OG, […] AcCoA). The series is classed as biochemical.

Series [2] deals with T2, homocitrate synthase ScLys20 (wild type) (Saccharomyces cerevisiae, UniProt P48570).
T2 construct: gene LYS20; N-terminal His-tagged recombinant ScLys20
T2 sequence (P48570 1-428): T1 sequence (P48570 1-428 S385F) with F385S
The series is described as above. The format is biochemical.

Series [3] deals with T3, homocitrate synthase ScLys20 S385E variant (Saccharomyces cerevisiae, UniProt P48570, S385E).
T3 construct: gene LYS20; N-terminal His-tagged recombinant ScLys20
T3 sequence (P48570 1-428 S385E): T1 sequence (P48570 1-428 S385F) with F385E
Described as above. The format is biochemical.

Substrate in series [4]: CC(=O)SCCNC(=O)CCNC(=O)[C@H](O)C(C)(C)COP(=O)(O)OP(=O)(O)OC[C@H]1O[C@@H](n2cnc3c(N)ncnc32)[C@H](O)[C@@H]1OP(=O)(O)O
The series is described as follows: steady-state kinetics of purified enzyme, DCPIP assay (apparent Km). The format is biochemical, Saccharomyces cerevisiae.

Substrate in series [5]: O=C(O)CCC(=O)C(=O)O
The series can be described thus: purified protein. Conditions: active center.

Setting [6] is: Arg31 interacts with 2-OG (homology model).

Positions count from the first letter of the chain named. Names may count otherwise.

Broadly, the IC50 is the concentration at which inhibition is half-maximal. The Km is the concentration of substrate that gives half-maximal velocity. As usually defined, the kcat is the number of substrate molecules converted per active site and unit of time at saturation. As a reminder, the kcat/Km is the turnover number divided by the Michaelis constant.

For the molecule `NCCCC[C@H](N)C(=O)O` [lysine], the figures for the IC50 in series [1], in series [2] and in series [3] were 2000 ± 680 µM, 1000 ± 140 µM and 3200 ± 610 µM, respectively.

B1: homocitrate synthase ScLys20 (wild type) (Saccharomyces cerevisiae S288C) (protein)
chain: T1 sequence (P48570 1-428 S385F) with F385S
notes: N-terminal His-tagged recombinant ScLys20
As to B1, in series [4], the Km was found to be 24.2 ± 4.21 µM, the kcat was 0.269 ± 0.014 s⁻¹ and the kcat/Km amounted to 11100 M⁻¹ s⁻¹. In addition, in series [5] (setting [6]), the Km is 4600 ± 1260 µM, the kcat was 0.287 s⁻¹ and the kcat/Km is 62.5 M⁻¹ s⁻¹.

B2: homocitrate synthase ScLys20 S385L variant (Saccharomyces cerevisiae S288C; S385L) (protein)
chain: T1 sequence (P48570 1-428 S385F) with F385L
B2: in series [5], the Km stood at 9500 ± 1990 µM, the kcat amounted to 0.436 s⁻¹ and the kcat/Km is 46 M⁻¹ s⁻¹.

B3: homocitrate synthase ScLys20 S385F variant (Saccharomyces cerevisiae S288C; S385F) (protein)
chain: T1 sequence (P48570 1-428 S385F)
notes: as for B1
On to B3, for which, in series [4], the Km was 22.8 ± 4.88 µM, the kcat is 0.373 ± 0.023 s⁻¹ and the kcat/Km came to 16400 M⁻¹ s⁻¹. In series [5], the Km amounted to 1990 ± 450 µM, the kcat came out at 0.483 s⁻¹ and the kcat/Km came out at 243 M⁻¹ s⁻¹.

B4: homocitrate synthase ScLys20 S385E variant (Saccharomyces cerevisiae S288C; S385E) (protein)
chain: T1 sequence (P48570 1-428 S385F) with F385E
notes: as for B1
With B4, in series [4], the Km stood at 16.1 ± 1.62 µM, the kcat amounted to 0.241 ± 0.0065 s⁻¹ and the kcat/Km amounted to 14900 M⁻¹ s⁻¹. Also, in series [5], the Km was found to be 3110 ± 530 µM, the kcat turned out to be 0.468 s⁻¹ and the kcat/Km was 150 M⁻¹ s⁻¹.

The values above are taken from paper PMC8276798, “High-Level Production of Lysine in the Yeast Saccharomyces cerevisiae by Rational Design of Homocitrate Synthase” (Applied and Environmental Microbiology, 2021).
